1 molecule from paper PMC4454200 (2015) can be followed below.

Broadly, the Kd is the equilibrium constant for the complex coming apart. High values mean weaker binding, low ones tighter binding.

The experiment deals with Myosin-5a (Mus musculus, UniProt Q99104). The experiment is described as follows: ATPase activity assay.
Sequence of Myosin-5a (Q99104 2-1853): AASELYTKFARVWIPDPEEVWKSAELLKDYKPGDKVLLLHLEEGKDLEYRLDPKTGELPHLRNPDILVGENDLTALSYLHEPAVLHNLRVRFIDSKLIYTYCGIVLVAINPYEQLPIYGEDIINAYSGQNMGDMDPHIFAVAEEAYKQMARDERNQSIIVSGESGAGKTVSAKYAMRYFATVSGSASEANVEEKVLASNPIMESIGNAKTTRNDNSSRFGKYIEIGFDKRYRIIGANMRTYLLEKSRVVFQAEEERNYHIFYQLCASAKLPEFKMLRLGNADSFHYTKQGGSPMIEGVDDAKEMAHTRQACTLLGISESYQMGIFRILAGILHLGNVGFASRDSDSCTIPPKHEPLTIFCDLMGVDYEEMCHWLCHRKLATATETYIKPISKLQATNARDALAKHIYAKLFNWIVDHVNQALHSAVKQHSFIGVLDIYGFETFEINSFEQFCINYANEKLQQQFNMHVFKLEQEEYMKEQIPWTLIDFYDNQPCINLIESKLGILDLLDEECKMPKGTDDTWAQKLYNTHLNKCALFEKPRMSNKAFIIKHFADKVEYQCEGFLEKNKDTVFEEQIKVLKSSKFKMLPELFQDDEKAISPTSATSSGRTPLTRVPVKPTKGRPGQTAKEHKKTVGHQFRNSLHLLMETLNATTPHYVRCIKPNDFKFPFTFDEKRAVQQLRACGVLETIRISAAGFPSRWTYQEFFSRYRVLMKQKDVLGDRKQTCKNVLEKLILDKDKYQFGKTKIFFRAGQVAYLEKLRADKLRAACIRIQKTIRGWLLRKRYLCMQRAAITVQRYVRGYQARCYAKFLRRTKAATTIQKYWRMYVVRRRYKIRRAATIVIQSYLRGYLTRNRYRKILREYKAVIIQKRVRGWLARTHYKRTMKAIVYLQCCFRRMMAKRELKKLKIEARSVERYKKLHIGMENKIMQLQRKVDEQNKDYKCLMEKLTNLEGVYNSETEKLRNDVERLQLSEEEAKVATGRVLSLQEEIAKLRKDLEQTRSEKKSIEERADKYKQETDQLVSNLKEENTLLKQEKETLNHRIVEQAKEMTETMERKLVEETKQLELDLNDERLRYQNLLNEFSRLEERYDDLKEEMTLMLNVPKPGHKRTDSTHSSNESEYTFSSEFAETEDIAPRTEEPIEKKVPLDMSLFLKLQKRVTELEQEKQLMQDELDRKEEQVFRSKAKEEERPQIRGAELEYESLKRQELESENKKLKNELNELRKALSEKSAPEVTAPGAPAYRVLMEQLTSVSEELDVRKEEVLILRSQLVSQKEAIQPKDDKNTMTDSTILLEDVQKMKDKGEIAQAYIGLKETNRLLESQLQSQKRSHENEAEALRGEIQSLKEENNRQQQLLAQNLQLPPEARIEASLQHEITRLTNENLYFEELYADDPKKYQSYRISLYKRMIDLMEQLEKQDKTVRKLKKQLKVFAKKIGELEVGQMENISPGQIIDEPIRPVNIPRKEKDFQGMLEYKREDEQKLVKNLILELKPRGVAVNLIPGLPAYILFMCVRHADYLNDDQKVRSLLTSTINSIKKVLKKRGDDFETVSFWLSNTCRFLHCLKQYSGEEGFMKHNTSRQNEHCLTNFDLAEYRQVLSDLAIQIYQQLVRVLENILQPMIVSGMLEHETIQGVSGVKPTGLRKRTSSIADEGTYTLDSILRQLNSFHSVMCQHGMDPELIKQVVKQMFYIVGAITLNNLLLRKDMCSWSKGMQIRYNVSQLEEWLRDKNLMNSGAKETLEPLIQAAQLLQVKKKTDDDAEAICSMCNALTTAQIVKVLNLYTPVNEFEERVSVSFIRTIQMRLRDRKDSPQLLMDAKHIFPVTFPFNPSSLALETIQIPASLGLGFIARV

B1: Melanophilin GTBDP (peptide)
chain: RDQPLNSKKKKRLLSFRDVDFEEDSD
For B1, the Kd came out at 19.8 µM.
